According to the supplement of paper PMC9112550, “Optimization of the antimicrobial peptide Bac7 by deep mutational scanning” (BMC Biology, 2022):

Each sequence was assayed on Escherichia coli TOP10 (assay: shrunken log2 fold change of peptide-encoding DNA abundance (4.5 h post-induction vs induction); higher = less antimicrobial activity (less host growth inhibition)). Details: time post-induction: 4.5 h; library: site-saturation at positions 5, 18, 19, 20.
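Note: peptides expressed intracellularly from a pBAD plasmid library in pooled LB shake-flask culture, induced with 0.3% L-arabinose, DNA abundance read by NGS, three biological replicates, DESeq2 with apeglm shrinkage.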

In order of falling “shrunken log2 fold change” value:
1. RRIRRRPPRLPRPRPRPPPDPRP  1.35
2. RRIRGRPPRLPRPRPRPAAGPRP  1.18
3. RRIRKRPPRLPRPRPRPTMRPRP  1.02
4. RRIRFRPPRLPRPRPRPEAAPRP  0.965
5. RRIRGRPPRLPRPRPRPMYTPRP  0.876
6. RRIRMRPPRLPRPRPRPGVPPRP  0.671
7. RRIRKRPPRLPRPRPRPMRSPRP  0.638
8. RRIRRRPPRLPRPRPRPACLPRP  0.623
9. RRIRARPPRLPRPRPRPDWWPRP  0.608
10. RRIRRRPPRLPRPRPRPTGRPRP  0.489
11. RRIRQRPPRLPRPRPRPKQGPRP  0.401
12. RRIRERPPRLPRPRPRPKFGPRP  0.37
13. RRIRVRPPRLPRPRPRPEDWPRP  0.354
14. RRIRGRPPRLPRPRPRPLNRPRP  0.33
15. RRIRHRPPRLPRPRPRPAPYPRP  0.296
16. RRIRMRPPRLPRPRPRPPMCPRP  0.293
17. RRIRVRPPRLPRPRPRPVRKPRP  0.274
18. RRIRWRPPRLPRPRPRPLIAPRP  0.273
19. RRIRFRPPRLPRPRPRPPSMPRP  0.252
20. RRIRGRPPRLPRPRPRPHQRPRP  0.23
21. RRIRGRPPRLPRPRPRPFDNPRP  0.23
22. RRIRGRPPRLPRPRPRPCIWPRP  0.208
23. RRIRGRPPRLPRPRPRPRHKPRP  0.149
24. RRIRKRPPRLPRPRPRPMKPPRP  0.145
25. RRIRRRPPRLPRPRPRPMEHPRP  0.131
26. RRIRDRPPRLPRPRPRPECKPRP  0.109
27. RRIRRRPPRLPRPRPRPRTSPRP  0.108
28. RRIRCRPPRLPRPRPRPMIVPRP  0.0976
29. RRIRNRPPRLPRPRPRPQDYPRP  0.087
30. RRIRLRPPRLPRPRPRPDNYPRP  0.0733
31. RRIRDRPPRLPRPRPRPSDLPRP  0.0645
32. RRIRVRPPRLPRPRPRPPQTPRP  0.0537
33. RRIRHRPPRLPRPRPRPVDFPRP  0.0522
34. RRIRARPPRLPRPRPRPAQKPRP  0.0505
35. RRIRGRPPRLPRPRPRPMKCPRP  0.0384
36. RRIRQRPPRLPRPRPRPELDPRP  0.0346
37. RRIRPRPPRLPRPRPRPEICPRP  0.0345
38. RRIRFRPPRLPRPRPRPENFPRP  0.0164
39. RRIRHRPPRLPRPRPRPWTHPRP  -0.00208
40. RRIRVRPPRLPRPRPRPKKWPRP  -0.00649
41. RRIRPRPPRLPRPRPRPQFRPRP  -0.0113
42. RRIRIRPPRLPRPRPRPEFWPRP  -0.0113
43. RRIRVRPPRLPRPRPRPQCEPRP  -0.0122
44. RRIRIRPPRLPRPRPRPVELPRP  -0.0129
45. RRIRVRPPRLPRPRPRPITRPRP  -0.0188
46. RRIRWRPPRLPRPRPRPRTSPRP  -0.0212
47. RRIRIRPPRLPRPRPRPHRWPRP  -0.0221
48. RRIRYRPPRLPRPRPRPELAPRP  -0.0264
49. RRIRPRPPRLPRPRPRPVTTPRP  -0.0302
50. RRIRFRPPRLPRPRPRPYQCPRP  -0.0374
51. RRIRDRPPRLPRPRPRPRTCPRP  -0.0386
52. RRIRPRPPRLPRPRPRPMGKPRP  -0.0536
53. RRIRPRPPRLPRPRPRPPSCPRP  -0.058
54. RRIRCRPPRLPRPRPRPVVGPRP  -0.0604
55. RRIRHRPPRLPRPRPRPDQVPRP  -0.0632
56. RRIRHRPPRLPRPRPRPKNFPRP  -0.0655
57. RRIRQRPPRLPRPRPRPTREPRP  -0.081
58. RRIRCRPPRLPRPRPRPPSCPRP  -0.0847
59. RRIRWRPPRLPRPRPRPFSMPRP  -0.0921
60. RRIRYRPPRLPRPRPRPSTAPRP  -0.0926
61. RRIRWRPPRLPRPRPRPCFGPRP  -0.119
62. RRIRTRPPRLPRPRPRPCICPRP  -0.119
63. RRIRPRPPRLPRPRPRPGITPRP  -0.138
64. RRIRTRPPRLPRPRPRPSDAPRP  -0.174
65. RRIRCRPPRLPRPRPRPIEIPRP  -0.223
66. RRIRIRPPRLPRPRPRPDHVPRP  -0.23
67. RRIRTRPPRLPRPRPRPIMKPRP  -0.253
68. RRIRQRPPRLPRPRPRPQVRPRP  -0.276
69. RRIRRRPPRLPRPRPRPITCPRP  -0.307
70. RRIRSRPPRLPRPRPRPRNLPRP  -0.322
71. RRIRFRPPRLPRPRPRPYPKPRP  -0.323
72. RRIRCRPPRLPRPRPRPTNMPRP  -0.47
73. RRIRIRPPRLPRPRPRPGSTPRP  -0.549
74. RRIRIRPPRLPRPRPRPGINPRP  -0.603
75. RRIRTRPPRLPRPRPRPHYQPRP  -0.782
